In patent publication US20090311686A1 (GIVAUDAN, published 2009):
No end group written: not given here.

Tests used:
Assay in all cases: cell-based or functional assay
[1] = target: T1, CSR:T1R2/CSR:T1R3 chimeric heterodimer (human)
T1 chain 1: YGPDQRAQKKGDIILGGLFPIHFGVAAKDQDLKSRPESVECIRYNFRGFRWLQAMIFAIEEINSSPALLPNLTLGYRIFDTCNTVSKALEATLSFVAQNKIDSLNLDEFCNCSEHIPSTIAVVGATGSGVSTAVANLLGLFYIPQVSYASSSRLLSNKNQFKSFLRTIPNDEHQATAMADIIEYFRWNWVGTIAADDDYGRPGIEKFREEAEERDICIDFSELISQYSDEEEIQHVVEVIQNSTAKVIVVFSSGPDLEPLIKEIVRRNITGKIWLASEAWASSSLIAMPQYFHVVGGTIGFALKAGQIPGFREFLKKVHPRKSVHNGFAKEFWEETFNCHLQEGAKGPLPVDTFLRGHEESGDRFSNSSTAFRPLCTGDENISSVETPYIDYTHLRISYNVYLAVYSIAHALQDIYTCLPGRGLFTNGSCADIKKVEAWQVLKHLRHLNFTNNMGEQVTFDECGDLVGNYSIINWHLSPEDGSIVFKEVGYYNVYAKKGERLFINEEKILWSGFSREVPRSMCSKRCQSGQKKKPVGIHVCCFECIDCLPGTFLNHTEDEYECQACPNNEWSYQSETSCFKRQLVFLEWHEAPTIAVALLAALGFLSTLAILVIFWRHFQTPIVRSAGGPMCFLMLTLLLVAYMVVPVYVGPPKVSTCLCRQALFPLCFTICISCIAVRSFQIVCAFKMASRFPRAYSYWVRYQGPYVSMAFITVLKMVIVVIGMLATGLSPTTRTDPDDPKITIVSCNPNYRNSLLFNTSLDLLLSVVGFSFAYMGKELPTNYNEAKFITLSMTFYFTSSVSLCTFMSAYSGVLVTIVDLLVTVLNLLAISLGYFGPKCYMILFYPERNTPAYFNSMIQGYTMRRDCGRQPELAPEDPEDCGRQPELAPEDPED
T1 chain 2: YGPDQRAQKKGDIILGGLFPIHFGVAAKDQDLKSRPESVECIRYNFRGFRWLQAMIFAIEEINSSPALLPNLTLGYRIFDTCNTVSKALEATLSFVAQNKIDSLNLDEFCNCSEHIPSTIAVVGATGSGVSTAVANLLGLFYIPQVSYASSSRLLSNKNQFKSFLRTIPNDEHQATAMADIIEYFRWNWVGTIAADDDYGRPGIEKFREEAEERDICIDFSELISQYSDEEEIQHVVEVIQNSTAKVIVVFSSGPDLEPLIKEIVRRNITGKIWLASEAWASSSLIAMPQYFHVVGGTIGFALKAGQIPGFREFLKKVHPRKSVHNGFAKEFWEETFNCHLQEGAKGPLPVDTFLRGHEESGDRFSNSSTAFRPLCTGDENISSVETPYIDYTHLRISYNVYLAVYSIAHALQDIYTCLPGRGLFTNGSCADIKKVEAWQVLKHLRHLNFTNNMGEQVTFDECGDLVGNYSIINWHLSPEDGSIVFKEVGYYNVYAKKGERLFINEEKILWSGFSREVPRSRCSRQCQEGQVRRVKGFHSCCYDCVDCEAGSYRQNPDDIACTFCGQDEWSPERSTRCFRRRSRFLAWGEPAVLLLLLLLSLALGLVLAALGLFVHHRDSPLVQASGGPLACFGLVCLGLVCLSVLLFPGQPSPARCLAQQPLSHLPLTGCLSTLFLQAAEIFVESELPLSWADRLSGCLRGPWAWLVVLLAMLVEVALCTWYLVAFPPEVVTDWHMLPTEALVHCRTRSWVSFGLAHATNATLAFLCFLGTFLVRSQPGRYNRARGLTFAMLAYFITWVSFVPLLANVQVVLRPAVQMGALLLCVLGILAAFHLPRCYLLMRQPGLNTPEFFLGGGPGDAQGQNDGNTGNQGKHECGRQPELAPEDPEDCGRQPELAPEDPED

[2] = target: human T1R2/T1R3 sweet receptor heterodimer (wildtype) (human, UniProt Q8TE23 20-839; Q7RTX0 21-852)
Chain of human T1R2/T1R3 sweet receptor heterodimer (wildtype) (Q7RTX0 21-852 C757R limits assumed, one chain of several): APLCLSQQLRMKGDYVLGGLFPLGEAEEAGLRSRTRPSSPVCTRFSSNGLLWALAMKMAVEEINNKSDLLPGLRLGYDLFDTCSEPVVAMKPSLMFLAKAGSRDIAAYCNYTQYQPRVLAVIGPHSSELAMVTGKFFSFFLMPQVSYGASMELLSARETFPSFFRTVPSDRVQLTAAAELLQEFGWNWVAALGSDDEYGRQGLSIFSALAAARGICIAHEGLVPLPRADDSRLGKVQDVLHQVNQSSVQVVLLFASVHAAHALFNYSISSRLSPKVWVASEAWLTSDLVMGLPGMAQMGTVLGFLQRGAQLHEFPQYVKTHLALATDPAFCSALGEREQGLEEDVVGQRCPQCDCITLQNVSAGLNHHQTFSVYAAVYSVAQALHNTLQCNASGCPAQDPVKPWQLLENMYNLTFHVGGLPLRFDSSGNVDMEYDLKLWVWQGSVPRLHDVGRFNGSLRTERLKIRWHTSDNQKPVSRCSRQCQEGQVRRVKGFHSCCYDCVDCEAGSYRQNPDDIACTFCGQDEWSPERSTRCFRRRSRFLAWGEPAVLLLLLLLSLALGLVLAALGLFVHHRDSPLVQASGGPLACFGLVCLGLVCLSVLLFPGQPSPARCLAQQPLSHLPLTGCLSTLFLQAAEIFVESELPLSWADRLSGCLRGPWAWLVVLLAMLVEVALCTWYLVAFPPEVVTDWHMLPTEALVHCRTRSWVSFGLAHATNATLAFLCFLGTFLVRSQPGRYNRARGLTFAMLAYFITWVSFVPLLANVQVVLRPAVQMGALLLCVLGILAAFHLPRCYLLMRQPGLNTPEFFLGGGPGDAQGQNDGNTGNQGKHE

[3] = target: T2, human calcium-sensing receptor (hCaSR), full length (human, UniProt Q8TE23 20-839)
T2 sequence: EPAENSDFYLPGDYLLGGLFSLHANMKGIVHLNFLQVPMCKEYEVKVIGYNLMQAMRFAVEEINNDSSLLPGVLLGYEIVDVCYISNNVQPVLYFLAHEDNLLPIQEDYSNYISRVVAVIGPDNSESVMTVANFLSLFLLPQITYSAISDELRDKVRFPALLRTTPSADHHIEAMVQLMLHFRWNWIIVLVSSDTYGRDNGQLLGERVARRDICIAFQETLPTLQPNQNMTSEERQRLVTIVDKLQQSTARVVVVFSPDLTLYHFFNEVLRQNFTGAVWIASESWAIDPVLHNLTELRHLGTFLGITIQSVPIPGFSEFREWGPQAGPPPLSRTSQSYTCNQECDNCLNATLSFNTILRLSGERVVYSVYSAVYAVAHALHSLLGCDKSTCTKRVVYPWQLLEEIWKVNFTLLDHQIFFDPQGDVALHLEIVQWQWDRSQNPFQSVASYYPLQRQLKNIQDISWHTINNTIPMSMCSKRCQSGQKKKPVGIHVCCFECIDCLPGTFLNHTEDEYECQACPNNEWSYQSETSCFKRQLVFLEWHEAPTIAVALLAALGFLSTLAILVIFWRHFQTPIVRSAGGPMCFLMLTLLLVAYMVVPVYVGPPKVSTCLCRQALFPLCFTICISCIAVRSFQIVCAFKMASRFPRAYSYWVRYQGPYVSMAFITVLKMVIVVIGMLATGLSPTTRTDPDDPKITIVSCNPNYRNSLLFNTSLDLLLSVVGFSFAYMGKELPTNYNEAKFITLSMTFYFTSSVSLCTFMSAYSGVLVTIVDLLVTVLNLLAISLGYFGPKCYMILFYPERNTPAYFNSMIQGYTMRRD

B1: Aspartame (aspartyl-phenylalanine-1-methyl ester, a dipeptide) (peptide)
peptide: Asp-Phe-OMe
B1 was tested, and the “net increase in fluorescence over baseline (Fluo-4 calcium assay, AVG of six replicates), aspartame 0.85 mM” value [1] was 72 RFU, the “net increase in fluorescence over baseline (Fluo-4 calcium assay, AVG of six replicates), aspartame 0.85 mM” value [2] was 531 RFU and the “net increase in fluorescence over baseline (Fluo-4 calcium assay, AVG of six replicates), aspartame 0.85 mM” value [3] was 41 RFU.
